Results on one molecule are retold here after paper PMC3976988 (Nature structural & molecular biology, 2013).

One may read the stoichiometry N as the number of molecules, sites or subunits per partner or assembly.

In the experiment the target is exosome core (S. cerevisiae, UniProt P46948 1-246; Q05636 1-305; Q12277 1-265; P25359 1-394; P48240 1-250; P53256 …). Kind of experiment: tandem affinity purification + ion-exchange chromatography.

B1: Rrp44 (enzyme, S. cerevisiae, UniProt Q08162 1-1001, looked up)
chain: MSVPAIAPRRKRLADGLSVTQKVFVRSRNGGATKIVREHYLRSDIPCLSRSCTKCPQIVVPDAQNELPKFILSDSPLELSAPIGKHYVVLDTNVVLQAIDLLENPNCFFDVIVPQIVLDEVRNKSYPVYTRLRTLCRDSDDHKRFIVFHNEFSEHTFVERLPNETINDRNDRAIRKTCQWYSEHLKPYDINVVLVTNDRLNREAATKEVESNIITKSLVQYIELLPNADDIRDSIPQMDSFDKDLERDTFSDFTFPEYYSTARVMGGLKNGVLYQGNIQISEYNFLEGSVSLPRFSKPVLIVGQKNLNRAFNGDQVIVELLPQSEWKAPSSIVLDSEHFDVNDNPDIEAGDDDDNNESSSNTTVISDKQRRLLAKDAMIAQRSKKIQPTAKVVYIQRRSWRQYVGQLAPSSVDPQSSSTQNVFVILMDKCLPKVRIRTRRAAELLDKRIVISIDSWPTTHKYPLGHFVRDLGTIESAQAETEALLLEHDVEYRPFSKKVLECLPAEGHDWKAPTKLDDPEAVSKDPLLTKRKDLRDKLICSIDPPGCVDIDDALHAKKLPNGNWEVGVHIADVTHFVKPGTALDAEGAARGTSVYLVDKRIDMLPMLLGTDLCSLKPYVDRFAFSVIWELDDSANIVNVNFMKSVIRSREAFSYEQAQLRIDDKTQNDELTMGMRALLKLSVKLKQKRLEAGALNLASPEVKVHMDSETSDPNEVEIKKLLATNSLVEEFMLLANISVARKIYDAFPQTAMLRRHAAPPSTNFEILNEMLNTRKNMSISLESSKALADSLDRCVDPEDPYFNTLVRIMSTRCMMAAQYFYSGAYSYPDFRHYGLAVDIYTHFTSPIRRYCDVVAHRQLAGAIGYEPLSLTHRDKNKMDMICRNINRKHRNAQFAGRASIEYYVGQVMRNNESTETGYVIKVFNNGIVVLVPKFGVEGLIRLDNLTEDPNSAAFDEVEYKLTFVPTNSDKPRDVYVFDKVEVQVRSVMDPITSKRKAELLLK
In the case of B1, the “stoichiometry N” value was 1 molar ratio.
